Data on one protein can be found in patent publication US20140271603.

Data set [1] has as its target T1, recombinant human factor H, Y402 variant, produced in the PER.C6 cell line.
T1 chain: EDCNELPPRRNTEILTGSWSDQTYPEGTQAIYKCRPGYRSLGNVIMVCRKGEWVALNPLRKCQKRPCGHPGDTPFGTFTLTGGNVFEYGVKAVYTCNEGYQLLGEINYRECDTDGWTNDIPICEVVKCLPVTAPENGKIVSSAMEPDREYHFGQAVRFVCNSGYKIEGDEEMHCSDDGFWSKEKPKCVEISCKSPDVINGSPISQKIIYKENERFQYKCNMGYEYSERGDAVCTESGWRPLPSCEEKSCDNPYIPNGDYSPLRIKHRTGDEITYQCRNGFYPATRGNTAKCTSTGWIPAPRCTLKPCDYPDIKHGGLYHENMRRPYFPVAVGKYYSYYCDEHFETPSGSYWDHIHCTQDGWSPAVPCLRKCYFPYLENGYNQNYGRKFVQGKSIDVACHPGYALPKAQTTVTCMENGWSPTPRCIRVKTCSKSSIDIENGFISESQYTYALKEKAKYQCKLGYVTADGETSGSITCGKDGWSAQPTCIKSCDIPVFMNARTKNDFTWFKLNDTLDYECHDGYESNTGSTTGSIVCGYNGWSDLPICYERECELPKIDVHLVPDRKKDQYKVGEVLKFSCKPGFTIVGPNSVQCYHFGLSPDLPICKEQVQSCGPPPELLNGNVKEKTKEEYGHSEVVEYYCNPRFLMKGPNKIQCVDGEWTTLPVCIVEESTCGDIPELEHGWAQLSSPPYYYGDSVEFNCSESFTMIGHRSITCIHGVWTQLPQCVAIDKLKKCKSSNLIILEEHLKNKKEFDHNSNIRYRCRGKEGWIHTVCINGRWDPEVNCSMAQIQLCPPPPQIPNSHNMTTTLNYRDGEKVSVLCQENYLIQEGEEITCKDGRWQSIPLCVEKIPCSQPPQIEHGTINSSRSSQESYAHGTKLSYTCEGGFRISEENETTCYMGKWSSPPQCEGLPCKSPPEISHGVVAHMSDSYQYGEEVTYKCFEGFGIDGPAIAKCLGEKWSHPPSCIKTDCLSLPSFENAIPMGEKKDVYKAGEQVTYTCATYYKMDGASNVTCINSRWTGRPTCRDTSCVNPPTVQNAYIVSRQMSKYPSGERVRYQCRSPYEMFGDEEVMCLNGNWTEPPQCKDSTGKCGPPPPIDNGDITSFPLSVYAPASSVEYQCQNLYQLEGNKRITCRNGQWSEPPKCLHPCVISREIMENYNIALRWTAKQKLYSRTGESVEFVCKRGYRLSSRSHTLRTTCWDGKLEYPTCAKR

The target in data set [2] is purified human plasma factor H (batch LFB), P08603.
The target of data set [3] is T2, recombinant human factor H, Y402 variant, produced in the HEK 293F cell line.
T2 chain: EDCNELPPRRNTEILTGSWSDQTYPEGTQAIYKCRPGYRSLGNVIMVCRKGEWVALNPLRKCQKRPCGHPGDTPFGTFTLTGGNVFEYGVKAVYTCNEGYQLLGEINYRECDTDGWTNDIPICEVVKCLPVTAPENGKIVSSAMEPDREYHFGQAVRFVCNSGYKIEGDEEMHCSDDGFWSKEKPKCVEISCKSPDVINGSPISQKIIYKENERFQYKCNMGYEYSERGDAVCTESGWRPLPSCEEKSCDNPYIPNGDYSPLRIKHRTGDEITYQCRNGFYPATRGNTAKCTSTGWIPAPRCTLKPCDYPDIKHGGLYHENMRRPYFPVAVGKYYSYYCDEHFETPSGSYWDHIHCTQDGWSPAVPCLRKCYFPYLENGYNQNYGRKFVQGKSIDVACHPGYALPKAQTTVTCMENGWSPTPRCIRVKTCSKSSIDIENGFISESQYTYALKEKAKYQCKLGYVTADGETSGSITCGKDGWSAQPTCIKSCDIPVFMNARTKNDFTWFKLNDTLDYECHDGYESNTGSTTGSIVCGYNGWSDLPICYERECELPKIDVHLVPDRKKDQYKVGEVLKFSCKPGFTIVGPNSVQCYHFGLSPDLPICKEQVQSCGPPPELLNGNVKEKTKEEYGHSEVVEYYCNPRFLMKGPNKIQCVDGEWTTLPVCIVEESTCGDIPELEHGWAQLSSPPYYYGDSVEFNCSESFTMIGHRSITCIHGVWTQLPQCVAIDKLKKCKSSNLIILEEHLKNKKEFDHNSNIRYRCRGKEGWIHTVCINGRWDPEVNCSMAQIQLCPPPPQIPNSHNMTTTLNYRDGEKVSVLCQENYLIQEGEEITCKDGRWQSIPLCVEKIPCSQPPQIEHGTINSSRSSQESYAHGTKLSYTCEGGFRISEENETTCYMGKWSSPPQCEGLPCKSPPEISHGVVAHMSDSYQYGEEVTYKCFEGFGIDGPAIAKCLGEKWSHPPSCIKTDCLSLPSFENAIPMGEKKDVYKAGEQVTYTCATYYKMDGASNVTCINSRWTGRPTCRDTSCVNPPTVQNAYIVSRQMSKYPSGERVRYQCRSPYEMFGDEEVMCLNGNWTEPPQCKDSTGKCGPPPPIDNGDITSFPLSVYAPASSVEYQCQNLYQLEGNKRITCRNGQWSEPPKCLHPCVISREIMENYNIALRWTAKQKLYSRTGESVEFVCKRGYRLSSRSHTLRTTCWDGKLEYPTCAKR

B1: Factor I (protein)
chain: KVTYTSQEDLVEKKCLAKKYTHLSCDKVFCQPWQRCIEGTCVCKLPYQCPKNGTAVCATNRRSFPTYCQQKSLECLHPGTKFLNNGTCTAEGKFSVSLKHGNTDSEGIVEVKLVDQDKTMFICKSSWSMREANVACLDLGFQQGADTQRRFKLSDLSINSTECLHVHCRGLETSLAECTFTKRRTMGYQDFADVVCYTQKADSPMDDFFQCVNGKYISQMKACDGINDCGDQSDELCCKACQGKGFHCKSGVCIPSQYQCNGEVDCITGEDEVGCAGFASVTQEETEILTADMDAERRRIKSLLPKLSCGVKNRMHIRRKRIVGGKRAQLGDLPWQVAIKDASGITCGGIYIGGCWILTAAHCLRASKTHRYQIWTTVVDWIHPDLKRIVIEYVDRIIFHENYNAGTYQNDIALIEMKKDGNKKDCELPRSIPACVPWSPYLFQPNDTCIVSGWGREKDNERVFSLQWGEVKLISNCSKFYGNRFYEKEMECAGTYDGSIDACKGDSGGPLVCMDANNVTYVWGVVSWGENCGKPEFPGVYTKVANYFDWISYHVGRPFISQYNV
For B1, the “cofactor activity of Factor I (liquid-phase cleavage of the C3b α′ chain, SDS-PAGE)” value was “the recombinant FHs produced by the PER.C6 and HEK 293F lines have a similar cofactor activity of FI and that this activity is comparable to that of the human plasma FH” in data set [1]; “this activity is comparable to that of the human plasma FH” in data set [2]; “the recombinant FHs produced by the PER.C6 and HEK 293F lines have a similar cofactor activity of FI and that this activity is comparable to that of the human plasma FH” in data set [3].
